Reference: patent US9540620B2, “Methods and compositions for modulating G-alpha-Q signaling” (The University of North Carolina at Chapel Hill, priority 2012, dated 2017)

T1: activated Gαq (Homo sapiens, UniProt P50148)
T1 sequence (P50148 1-359): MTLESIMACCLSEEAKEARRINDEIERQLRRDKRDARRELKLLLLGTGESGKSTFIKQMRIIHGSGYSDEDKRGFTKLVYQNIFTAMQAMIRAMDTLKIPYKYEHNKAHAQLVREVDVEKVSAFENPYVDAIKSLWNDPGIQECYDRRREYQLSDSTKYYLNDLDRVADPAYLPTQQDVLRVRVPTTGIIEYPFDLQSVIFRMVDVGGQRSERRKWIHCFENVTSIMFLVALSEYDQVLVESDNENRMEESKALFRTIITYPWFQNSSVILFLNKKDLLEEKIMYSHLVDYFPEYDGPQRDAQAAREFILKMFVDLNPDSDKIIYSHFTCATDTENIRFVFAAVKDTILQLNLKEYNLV

T2: Gαq (Homo sapiens, UniProt P50148)
T2 sequence (P50148 1-359): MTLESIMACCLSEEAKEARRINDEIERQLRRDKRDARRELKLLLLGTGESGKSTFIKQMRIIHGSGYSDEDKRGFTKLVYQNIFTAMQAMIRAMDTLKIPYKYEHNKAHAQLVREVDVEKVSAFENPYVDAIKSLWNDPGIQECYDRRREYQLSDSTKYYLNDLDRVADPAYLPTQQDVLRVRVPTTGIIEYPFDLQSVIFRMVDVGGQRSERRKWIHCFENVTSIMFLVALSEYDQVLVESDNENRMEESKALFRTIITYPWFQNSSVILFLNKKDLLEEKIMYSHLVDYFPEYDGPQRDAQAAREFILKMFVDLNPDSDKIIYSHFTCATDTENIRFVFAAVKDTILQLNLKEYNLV


What was measured:
[1] = system: Gαq downstream of the muscarinic receptor; experiment: Muscarinic receptor-dependent activation of PLC-β, [3H]inositol phosphate accumulation in HEK293 cells; assay type: cell-based; conditions: peptide for 30 minutes (FIG. 9)
Description: FIG. 9. Muscarinic receptor-dependent activation of PLC-β was determined by quantification of [^3H]inositol phosphate accumulation. Where indicated, HEK293 cells were treated with Palm-27-mer peptide for 30 minutes.
Since a major tenet of this invention is to interdict Gαq signaling in cells with peptidomimetics, it will be necessary to efficiently introduce peptides derived from this scaffold into cells. […] Moreover, once introduced, this peptide prevented the stimulation of PLC activity by Gαq downstream of the P2Y6 receptor and/or muscarinic receptor, a G protein-coupled receptor selective for Gαq (FIG. 7C and FIG. 9).
Since a major tenet of this work is to downregulate G-alpha-q signaling in cells with peptidomimetics, peptides derived from this scaffold have been efficiently delivered into cells.

[2] = target: T1, activated Gαq; conditions: full-length protein; read-out: dissociation constant (KD) for activated Gαq; cited from earlier work
[3] = target: T2, Gαq; experiment: Fluorescence polarization competition: unlabeled PLC-β3 against TAMRA-labeled peptide for Gαq; assay type: binding; conditions: TAMRA-27-mer 400 nM, Gαq 800 nM
Description: FIGS. 3A and 3B. TAMRA-27-mer and PLC-β3 directly compete for Gαq. (FIG. 3A) Increasing concentrations of PLC-β3 were added to a solution of TAMRA-27-mer (400 nM) and Gαq (800 nM). The IC50 value is derived from three independent experiments. (FIG. 3B) Phospholipase activity of PLC-β3 activated by Gαq using lipid vesicles and inhibited by increasing concentrations of TAMRA-27-mer.
FIGS. 6A-C. Quantification of Gαq binding to peptides corresponding to the HTH of PLβ3. […] The structures of PLCβ3 (3 OHM) and p63RhoGEF (2RGN) bound to Gαq were superimposed and a single Gαq is shown. Immediately below is shown the sequence alignment of PLCβ3 (SEQ ID NO:37) and p63RhoGEF (SEQ ID NO:41) encompassing the helix-turn-helix. Underlined residues are labeled in the structure. […] (FIG. 6C) Increasing concentrations of unlabeled PLC-β3 were added to a solution of labeled 25-mer (400 nM) and Gαq (4 μM). KD and IC50 values were derived from three independent experiments.
Fluorescence polarization will be used to monitor disruption of complex formation between the 27-mer and active Gαq to identify compounds that directly compete with the complex. It is expected that the majority of these compounds will sit within the canonical effector-binding site of Gαq to prevent the binding of peptide—and by extension, prevent the binding of effectors. However, before using this assay format to identify inhibitors of complex formation it was necessary to insure that peptides corresponding to the HTH of PLC-β3 bound to Gαq. […] These experiments strongly support that peptides corresponding to the HTH of PLC-β3 directly bind to the effector pocket of Gαq and can be used as surrogates of effectors in assays of complex formation with active Gαq.
The most promising peptide consisted of 25 residues (TAMRA-25-mer) spanning the entire HTH and bound to G-alpha-q with appreciable affinity (Kd˜6 microMolar).

Row | competition with the 27-mer for binding to Gαq [3] | Molecule | stimulation of PLC activity by Gαq downstream of the muscarinic receptor [1] | Kd [2] [nM]
1 | – | Palm-PEG-PEG-HQDYAEALANPIKHVSL-Nle-DQRARQLAA (HQDYAEALANPIKHVSLXDQRARQLAA; non-natural residues) [Palm-27-mer, 27-mer HTH peptide with a palmityl lipid linked through PEG linkers] | prevent the stimulation of PLC activity | –
2 | could effectively compete | PLC-β3: full-length phospholipase C beta 3, effector of Gαq, used as unlabeled competitor (protein) AGAQPGVHALQLEPPTVVETLRRGSKFIKWDEETSSRNLVTLRVDPNGFFLYWTGPNMEVDTLDISSIRDTRTGRYARLPKDPKIREVLGFGGPDARLEEKLMTVVSGPDPVNTVFLNFMAVQDDTAKVWSEELFKLAMNILAQNASRNTFLRKAYTKLKLQVNQDGRIPVKNILKMFSADKKRVETALESCGLKFNRSESIRPDEFSLEIFERFLNKLCLRPDIDKILLEIGAKGKPYLTLEQLMDFINQKQRDPRLNEVLYPPLRPSQARLLIEKYEPNQQFLERDQMSMEGFSRYLGGEENGILPLEALDLSTDMTQPLSAYFINSSHNTYLTAGQLAGTSSVEMYRQALLWGCRCVELDVWKGRPPEEEPFITHGFTMTTEVPLRDVLEAIAETAFKTSPYPVILSFENHVDSAKQQAKMAEYCRSIFGDALLIEPLDKYPLAPGVPLPSPQDLMGRILVKNKKRHRPSAGGPDSAGRKRPLEQSNSALSESSAATEPSSPQLGSPSSDSCPGLSNGEEVGLEKPSLEPQKSLGDEGLNRGPYVLGPADREDEEEDEEEEEQTDPKKPTTDEGTASSEVNATEEMSTLVNYIEPVKFKSFEAARKRNKCFEMSSFVETKAMEQLTKSPMEFVEYNKQQLSRIYPKGTRVDSSNYMPQLFWNVGCQLVALNFQTLDVAMQLNAGVFEYNGRSGYLLKPEFMRRPDKSFDPFTEVIVDGIVANALRVKVISGQFLSDRKVGIYVEVDMFGLPVDTRRKYRTRTSQGNSFNPVWDEEPFDFPKVVLPTLASLRIAAFEEGGKFVGHRILPVSAIRSGYHYVCLRNEANQPLCLPALLIYTEASDYIPDDHQDYAEALINPIKHVSLMDQRARQLAALIGESEAQAGQETCQDTQSQQLGSQPSSNPTPSPLDASPRRPPGPTTSPASTSLSSPGQRDDLIASILSEVAPTPLDELRGHKALVKLRSRQERDLRELRKKHQRKAVTLTRRLLDGLAQAQAEGRCRLRPGALGGAADVEDTKEGEDEAKRYQEFQNRQVQSLLELREAQVDAEAQRRLEHLRQALQRLREVVLDANTTQFKRLKEMNEREKKELQKILDRKRHNSISEAKMRDKHKKEAELTEINRRHITESVNSIRRLEEAQKQRHDRLVAGQQQVLQQLAEEEPKLLAQLAQECQEQRARLPQEIRRSLLGEMPEGLGDGPLVACASNGHAPGSSGHLSGADSESQEENTQL | – | 10 to 100
